Measurements as given in the Immune Epitope Database (IEDB).

Assays:
Assay in all cases: IEDB peptide-MHC binding, purified MHC/competitive/radioactivity; ≥ and ≤ were set here for values at or beyond the usual limits of such assays
Details in all cases: source organism: Bordetella pertussis
HLA-A*02:01 = molecular target: HLA-A*02:01
HLA-B*35:01 = molecular target: HLA-B*35:01
HLA-B*44:03 = molecular target: HLA-B*44:03
HLA-B*57:01 = molecular target: HLA-B*57:01
HLA-B*07:02 = molecular target: HLA-B*07:02
HLA-B*53:01 = molecular target: HLA-B*53:01

Q: Which IC50 (HLA-A*02:01) does the source give for SLFAILSST here?
A: 1.42 µM

Q: How did the IC50 (HLA-B*35:01) turn out when ADDPPATVY was run?
A: 69.9 µM

Q: Which IC50 (HLA-B*44:03) does the source give for TEVYLEHRM here?
A: 2.72 µM

Q: RVRALSWLL was tested. Which IC50 (HLA-B*57:01) did it give?
A: 2.12 µM

Q: Which IC50 (HLA-B*07:02) does the source give for ARRSRVRAL here?
A: 15.8 µM

Q: Which IC50 (HLA-B*35:01) does the source give for EPVKLTLTG here?
A: 13.7 µM

Q: With EVRADNNFY as the sequence, how does the IC50 (HLA-B*35:01) read?
A: 25.6 µM

Q: How did the IC50 (HLA-B*07:02) turn out when NPYTSRRSV was run?
A: 0.274 µM

Q: Which IC50 (HLA-A*02:01) does the source give for KLLHHILPI here?
A: 0.312 µM

Q: With PGPQPPQPQ as the sequence, how does the IC50 (HLA-B*44:03) read?
A: 48.6 µM

Q: How did the IC50 (HLA-B*07:02) turn out when TVLAAGAGL was run?
A: 69.6 µM

Q: RKMLYLIYV was tested. Which IC50 (HLA-A*02:01) did it give?
A: 5.45 µM

Q: Which IC50 (HLA-B*57:01) does the source give for TSRRSVASI here?
A: 4.54 µM

Q: KQADRDFVW was tested. Which IC50 (HLA-B*57:01) did it give?
A: 11.3 µM

Q: How did the IC50 (HLA-A*02:01) turn out when EGKMESNKD was run?
A: ≥ 78.1 µM

Q: With DPPATVYRY as the sequence, how does the IC50 (HLA-B*35:01) read?
A: 7.2 µM

Q: What about the IC50 (HLA-B*53:01) of the same sequence?
A: 52.9 µM

Q: How did the IC50 (HLA-B*57:01) turn out when LSGEVQRKG was run?
A: ≥ 70.4 µM

Q: How did the IC50 (HLA-B*35:01) turn out when PKPKPKPKP was run?
A: 64.9 µM
